We go through four molecules from patent publication US20240190999A1.

The target of assay [1] is biotinylated cynomolgus 4-1BB (bio.c4-1BB) (cynomolgus monkey) (UniProt A9YYE7). Description: SPR (ProteOn XPR36), biotinylated c4-1BB immobilised on GLC chip, construct as analyte.
Assay [2] has the same target. Description: SPR (ProteOn XPR36); end of the group's range, tied to #44 by Table 15.
Assay [3] addresses biotinylated human 4-1BB-Fc (bio.h4-1BB-Fc) (human) (UniProt Q07011). The assay can be described thus: SPR (ProteOn XPR36), sequential injections; 100 nM MpA on 360 RU bio.h4-1BB-Fc on NLC chip.
The target in assay [4] is biotinylated cynomolgus 4-1BB (bio.c4-1BB) (cynomolgus monkey) (UniProt A9YYE7). Description: SPR (ProteOn XPR36), bio.c4-1BB on NLC chip, MpA analyte; mean of triplicate.
For assay [5] the target is unchanged. Description: SPR (ProteOn XPR36), bio.c4-1BB on NLC chip, MpA analyte; mean of triplicate; apparent affinity (bivalent).
Assay [6] has the same target. The assay can be described thus: SPR (ProteOn XPR36); end of the group's range, tied to #47 by Table 15.
Assay [7] has the same target. The assay can be described thus: SPR (ProteOn XPR36); told of the group, largest difference is that of #47 by Table 15.

Sequence of biotinylated cynomolgus 4-1BB (bio.c4-1BB) (cynomolgus monkey) (A9YYE7 entry or part of it): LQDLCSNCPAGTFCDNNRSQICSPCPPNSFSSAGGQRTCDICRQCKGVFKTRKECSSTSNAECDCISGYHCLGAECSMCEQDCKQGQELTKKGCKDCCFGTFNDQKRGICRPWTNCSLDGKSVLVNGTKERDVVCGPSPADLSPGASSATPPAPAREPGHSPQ
Sequence of biotinylated human 4-1BB-Fc (bio.h4-1BB-Fc) (human) (Q07011 24-186 limits assumed): as the sequence (A9YYE7 entry or part of it) above, with L4P, S19N, K50R, I66T, S67P, Y69F, E75G, A149V counted along it

B1: bispecific construct #44 (designed binder)
chain: MRGSHHHHHHGSDLGEKLLVAALYGQDDEVRILLAAGADVNAKDQWGLTPLHKAALQGHLEIVEVLLKAGADVNAKDERGHTPLHWAARFGHLEIVEVLLKAGADVNAQDQKGYTPADLAALWGHEDIAEVLQKAAGSPTPTPTTPTPTPTTPTPTPTGSDLGQKLLKAAQEGQDDEVRELLKAGADVNAKDLRGITPLHVAAWQGHLEIVEVLLKAGADVNAKDSKGETPLHLAAFRGHLEIVEVLLKAGADVNAQDQQGETPADLAALAGHVDIAEVLQKLN
B1: the results for the Kd in assay [1] and in assay [2] were 1.12 nM and 1.1 to 2.9 nM, respectively.

B2: Multispecific binding protein A (MpA) (designed binder)
chain: GSDLGKKLLEAARAGQDDEVRELLKAGADVNAKDYFSHTPLHLAARNGHLKIVEVLLKAGADVNAKDFAGKTPLHLAAADGHLEIVEVLLKAGADVNAQDIFGKTPADIAADAGHEDIAEVLQKAAGSPTPTPTTPTPTPTTPTPTPTGSDLGKKLLEAARAGQDDEVRELLKAGADVNAKDVLGWTPLHLAAFEGHLEIVEVLLKAGADVNAKDKKGWTPLQLAARTGHLEIVEVLLKAGADVNAKDHIGATPLHLAAWQGHPEIVEVLLKAGADVNAQDKSGKTPADLAADAGHEDIAEVLQKAAGSPTPTPTTPTPTPTTPTPTPTGSDLGQKLLKAAQEGQDDEVRELLKAGADVNAKDLRGITPLHVAAWQGHLEIVEVLLKAGADVNAKDSKGETPLHLAAFRGHLEIVEVLLKAGADVNAQDQQGETPADLAALAGHVDIAEVLQKAAGSPTPTPTTPTPTPTTPTPTPTGSDLGQKLLKAAQEGQDDEVRELLKAGADVNAKDLRGITPLHVAAWQGHLEIVEVLLKAGADVNAKDSKGETPLHLAAFRGHLEIVEVLLKAGADVNAQDQQGETPADLAALAGHVDIAEVLQKAAGSPTPTPTTPTPTPTTPTPTPTGSDLGKKLLEAARAGQDDEVRELLKAGADVNAKDYFSHTPLHLAARNGHLKIVEVLLKAGADVNAKDFAGKTPLHLAAADGHLEIVEVLLKAGADVNAQDIFGKTPADIAADAGHEDIAEVLQKAA
The term koff denotes the first-order rate constant of dissociation. Higher therefore signals fast dissociation. Broadly, the kon is the second-order rate constant of association. B2 returned a Binding stoichiometry in assay [3] of 0.7. Besides, in assay [4], the koff was found to be 2.7e-05 s⁻¹ and the kon came to 2.1e+06 M⁻¹ s⁻¹. Besides, in assay [5], the Kd is 0.014 nM.

B3: bispecific construct #47 (designed binder)
chain: MRGSHHHHHHGSDLGEKLLVAALYGQDDEVRILLAAGADVNAKDQWGLTPLHKAALQGHLEIVEVLLKAGADVNAKDERGHTPLHWAARFGHLEIVEVLLKAGADVNAQDQKGYTPADLAALWGHEDIAEVLQKAAGSPTPTPTTPTPTPTTPTPTPTGSDLGKKLLEAARAGQDDEVRELLKAGADVNAKDTYGETPLHLAAWKGHLEIVEVLLKAGADVNAKDSIGITPLHVAAHHGHLEIVEVLLKAGADVNAKDKWGRTPLHLAALLGHLEIAEVLLKAGADVNAQDKSGKTPADLAADAGHDDIAEVLQKLN
In the case of B3, the Kd in assay [6] is 1.1 to 2.9 nM; in assay [1], 2.9 nM. For the same molecule, the fold difference in binding affinity as compared to human 4-1BB in assay [7] was under 4 fold.

B4: bispecific construct #49 (designed binder)
chain: MRGSHHHHHHGSDLGEKLLVAALYGQDDEVRILLAAGADVNAKDQWGLTPLHKAALQGHLEIVEVLLKAGADVNAKDERGHTPLHWAARFGHLEIVEVLLKAGADVNAQDQKGYTPADLAALWGHEDIAEVLQKAAGSPTPTPTTPTPTPTTPTPTPTGSDLGKKLLVAANVGQDDEVRILLAAGADVNAKDYHGYTPLHHAATYGHLEIVEVLLKAGADVNAKDQTGLTPLHLAAAKGHLEIVEVLLKAGADVNAQDHHGYTPADLAAFVGHEDIAVVLQKLN
As to B4, the Kd in assay [1] was 1.48 nM.
